The record followed here is PMC2904749.

For assay [1], the target named is human βB2-crystallin Q70E (human). Kind of assay: small angle X-ray scattering.
For assay [2] the target is unchanged. As to the kind of experiment: dynamic light scattering.
In assay [3] the target is human βB2-crystallin Q162E (human). Kind of assay: small angle X-ray scattering.
Assay [4] has the same target. As to the kind of experiment: dynamic light scattering.
Assay [5] addresses human βB2-crystallin doubly deamidated mutant Q70EQ162E (human). As to the kind of experiment: small angle X-ray scattering.
For assay [6] the target is unchanged. Kind of assay: dynamic light scattering.

In general, stoichiometry N refers to the number of molecules, sites or subunits per partner or assembly. As for “human βB2-crystallin Q70E (natural protein)”, the stoichiometry N in assay [1] and in assay [2] was 2 throughout.

Turning to “human βB2-crystallin Q162E (natural protein)”, the stoichiometry N in assay [3] and in assay [4] was 2 throughout.

Take “human βB2-crystallin doubly deamidated mutant Q70EQ162E (natural protein)”: the stoichiometry N in assay [5] and in assay [6] was 2 in each case.
